One molecule from PMC6193735, “Defining LytTR Regulatory Systems” can be followed below.

The data set has as its target T1, HdrR (Streptococcus mutans UA140, UniProt Q8DSE1 1-133).
T1 sequence: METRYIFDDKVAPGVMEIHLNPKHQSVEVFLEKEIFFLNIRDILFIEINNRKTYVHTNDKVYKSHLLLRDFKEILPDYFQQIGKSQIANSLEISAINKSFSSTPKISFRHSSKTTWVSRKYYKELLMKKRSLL
Nature of the data set: EMSA; 1 ng probe, 10-30 ug HdrR as printed, 20 ul; unlabeled wild-type competitor 50 and 200 ng; EMSA: 20 ul, 25 C, 20 min; binding buffer not printed (as ref 62); oligos annealed in 50 mM Tris-HCl pH 8.0, 10 mM MgCl2, 50 mM NaCl, 1 mM EDTA. The settings on record: protein: recombinant; tags: His6 (HdrR-His6, pET29b); chain copies: 2; label: 5' digoxigenin-11-ddUTP on forward strand (probe); blunt. On the technique in general: A gel shift assay detects complexes by their altered migration in electrophoresis.

B1: hdrRMP (wild-type hdrRM operon direct repeat probe) (dsDNA)
DNA 1: TAATGGTTACCTCTTAGACATTAAAAATGACCACTTAATAGAAAAG
DNA 2: CTTTTCTATTAAGTGGTCATTTTTAATGTCTAAGAGGTAACCATTA
Turning to B1, the binding result is listed as “binds”.
